Data as given in patent publication US20240369491A1.

Molecular target: SARS-CoV-2 Spike RBD-His (Cat #: 40592-V08B) (SARS-CoV-2), P0DTC2

Binder | N:Au ratio (XPS) after RBD binding
CIEEQAKTFLDKFNHEAEDLFYQS (modifications not checked) [Cys-SBP-PEG4] | 1.45
CIEEQAKTFLDKFNHEAEDLFYQS (modifications not checked) [Cys-SBP] | 1.31
